Results taken from patent US20130231277A1.

Target: FGFR1c endogenously expressed by HEK293 cells transiently transfected with murine βKlotho (UniProt P11362)
Experiment: cell-based or functional assay

FGFR1c endogenously expressed by HEK293 cells transiently transfected with murine βKlotho, sequence (P11362 22-822): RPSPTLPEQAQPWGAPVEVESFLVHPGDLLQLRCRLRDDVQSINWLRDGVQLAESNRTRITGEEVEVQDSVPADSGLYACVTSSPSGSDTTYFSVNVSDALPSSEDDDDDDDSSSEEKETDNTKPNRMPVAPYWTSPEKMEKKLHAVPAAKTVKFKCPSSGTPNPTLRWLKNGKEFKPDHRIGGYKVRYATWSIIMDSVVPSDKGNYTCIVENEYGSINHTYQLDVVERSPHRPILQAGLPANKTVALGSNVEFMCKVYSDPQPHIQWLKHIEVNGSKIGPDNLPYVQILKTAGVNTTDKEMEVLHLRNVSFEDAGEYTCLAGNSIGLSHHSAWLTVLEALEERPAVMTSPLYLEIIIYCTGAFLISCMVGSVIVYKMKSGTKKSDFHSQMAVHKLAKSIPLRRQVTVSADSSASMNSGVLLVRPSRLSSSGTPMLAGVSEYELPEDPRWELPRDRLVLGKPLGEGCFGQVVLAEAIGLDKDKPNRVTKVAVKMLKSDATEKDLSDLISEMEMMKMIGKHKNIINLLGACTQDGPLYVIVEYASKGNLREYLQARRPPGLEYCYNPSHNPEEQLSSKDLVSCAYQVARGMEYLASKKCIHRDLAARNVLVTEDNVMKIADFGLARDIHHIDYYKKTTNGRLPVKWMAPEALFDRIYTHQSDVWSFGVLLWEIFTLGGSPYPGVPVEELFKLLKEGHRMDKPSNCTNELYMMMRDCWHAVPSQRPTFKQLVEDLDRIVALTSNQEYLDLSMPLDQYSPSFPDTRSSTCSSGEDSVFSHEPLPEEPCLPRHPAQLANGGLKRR

Induction of Egr1 protein expression (immunoblot, HEK293 cells co-expressing FGFR1c and βKlotho): 30 ng/mL
Substance: Q104M single mutant of human FGF21 (SEQ ID NO: 152) (from UniProt Q9NSA1 29-209) (ligand)
